Tests used:
[1] = biological target: Cp149.G123A (Hepatitis B virus) (UniProt P03147); experiment: SEC
[2] = biological target: Cp149.G123A (Hepatitis B virus) (UniProt P03147); experiment: AUC
[3] = biological target: Cp149.G123A.T114A (Hepatitis B virus) (UniProt P03147); experiment: AUC
[4] = biological target: Cp149.R127A (Hepatitis B virus) (UniProt P03147); experiment: AUC
[5] = biological target: Cp149.R127A.G123A (Hepatitis B virus) (UniProt P03147); experiment: AUC
[6] = biological target: Cp149.S141A (Hepatitis B virus) (UniProt P03147); experiment: AUC
[7] = biological target: Cp149.T114A (Hepatitis B virus) (UniProt P03147); experiment: AUC
[8] = biological target: Cp149.Y132A (Hepatitis B virus) (UniProt P03147); experiment: AUC
[9] = biological target: Cp149.Y132A.G123A.R127A (Hepatitis B virus) (UniProt P03147); experiment: AUC
[10] = biological target: Cp(−10)149.5A (Hepatitis B virus) (UniProt P03147); experiment: cross-linking
[11] = biological target: Cp(−10)149.G123A (Hepatitis B virus) (UniProt P03147); experiment: AUC
[12] = biological target: Cp(−10)149d.C(−7)A.C61.C48A.C107A (Hepatitis B virus) (UniProt P03147); experiment: cross-linking
[13] = biological target: Cp(−10)149d.C(−7)A.C61.C48A.C107A (Hepatitis B virus) (UniProt P03147); experiment: AUC
AUC = biological target: the molecule itself; experiment: AUC
cross-linking = biological target: the molecule itself; experiment: cross-linking

Q: Which results are given for “Cp149.G123A (from UniProt P03147 1-149) (domain or fragment)”?
A: stoichiometry N [1]: 2; stoichiometry N [2]: 2

Q: Which stoichiometry N [3] does the source give for “Cp149.G123A.T114A (from UniProt P03147 1-149) (domain or fragment)” here?
A: 2

Q: Which stoichiometry N [4] does the source give for “Cp149.R127A (from UniProt P03147 1-149) (domain or fragment)” here?
A: 2

Q: “Cp149.R127A.G123A (from UniProt P03147 1-149) (domain or fragment)” was tested. Which stoichiometry N [5] did it give?
A: 2

Q: “Cp149.S141A (from UniProt P03147 1-149) (domain or fragment)” was tested. Which stoichiometry N [6] did it give?
A: 2

Q: “Cp149.T114A (from UniProt P03147 1-149) (domain or fragment)” was tested. Which stoichiometry N [7] did it give?
A: 2

Q: “Cp149.Y132A (from UniProt P03147 1-149) (domain or fragment)” was tested. Which stoichiometry N [8] did it give?
A: 2

Q: For “Cp149.Y132A.G123A.R127A (from UniProt P03147 1-149) (domain or fragment)”, which stoichiometry N [9] is on record?
A: 2

Q: For “Cp(−10)149.5A (from UniProt P03147 1-149) (natural protein)”, which stoichiometry N [10] is on record?
A: 2

Q: “Cp(−10)149.G123A (from UniProt P03147 1-149) (natural protein)” was tested. Which stoichiometry N [11] did it give?
A: 2

Q: Which results are given for “Cp(−10)149d.C(−7)A.C61.C48A.C107A (from UniProt P03147 1-149) (natural protein)”?
A: stoichiometry N [12]: 2; stoichiometry N [13]: 2

B1: Cp141 (domain or fragment)
chain: MDIDPYKEFGATVELLSFLPSDFFPSVRDLLDTAAALYRDALESPEHCSPHHTALRQAILCWGDLMTLATWVGTNLEDPASRDLVVSYVNTNVGLKFRQLLWFHISCLTFGRETVLEYLVSFGVWIRTPPAYRPPNAPILS
Q: For B1, which “stoichiometry N” value (AUC) is on record?
A: 2

B2: Cp149.4A (domain or fragment)
chain: MDIDPYKEFGATVELLSFLPSDFFPSVRDLLDTAAALYRDALESPEHASPHHTALRQAILCWGDLMTLATWVGTNLEDPASRDLVVSYVNTNVGLKFRQLLWFHISALTFGRETVLEYLVSFAVWIATPPAYRPPNAPILSTLPETTVV
Q: With B2 as the molecule, how does the “stoichiometry N” value (cross-linking) read?
A: 2

B3: Cp143 (domain or fragment)
chain: MDIDPYKEFGATVELLSFLPSDFFPSVRDLLDTAAALYRDALESPEHCSPHHTALRQAILCWGDLMTLATWVGTNLEDPASRDLVVSYVNTNVGLKFRQLLWFHISCLTFGRETVLEYLVSFGVWIRTPPAYRPPNAPILSTL
Q: How did the “stoichiometry N” value (AUC) turn out when B3 was run?
A: 2

— paper PMC3095675 (Journal of molecular biology, 2011)
